The values below come from US20020111306A1.

Experiment [1] deals with human MCH1 receptor (MCH1) encoded by plasmid TL231 (pEXJ.HR-TL231) (human). In words: radioligand binding, membranes of Cos-7 cells transfected with MCH1, 0.1 nM radioligand, filtration.
For experiment [2] the target is unchanged. Description: radioligand binding, membranes of Cos-7 cells transfected with MCH1, 0.1 nM radioligand, filtration; nonspecific binding defined with 10 µM unlabeled MCH.
Experiment [3] shares this target. Description: cell-based or functional assay.
The target is the same in experiment [4]. In words: cell-based or functional assay. This is another data set of the same source.
In experiment [5] the target is mutant (short form) human MCH1 receptor encoded by plasmid BO120 (human). In words: cell-based or functional assay.
The target of experiment [6] is mutant human MCH1 receptor encoded by plasmid R114 (M6A, M70A) (human) (UniProt Q99705). In words: cell-based or functional assay.

Where “and” joins values, the source holds several entries; their conditions need not be identical. Equal entries are not always repeated.

Chain of human MCH1 receptor (MCH1) encoded by plasmid TL231 (pEXJ.HR-TL231) (human) (chain, as listed by the source limits assumed): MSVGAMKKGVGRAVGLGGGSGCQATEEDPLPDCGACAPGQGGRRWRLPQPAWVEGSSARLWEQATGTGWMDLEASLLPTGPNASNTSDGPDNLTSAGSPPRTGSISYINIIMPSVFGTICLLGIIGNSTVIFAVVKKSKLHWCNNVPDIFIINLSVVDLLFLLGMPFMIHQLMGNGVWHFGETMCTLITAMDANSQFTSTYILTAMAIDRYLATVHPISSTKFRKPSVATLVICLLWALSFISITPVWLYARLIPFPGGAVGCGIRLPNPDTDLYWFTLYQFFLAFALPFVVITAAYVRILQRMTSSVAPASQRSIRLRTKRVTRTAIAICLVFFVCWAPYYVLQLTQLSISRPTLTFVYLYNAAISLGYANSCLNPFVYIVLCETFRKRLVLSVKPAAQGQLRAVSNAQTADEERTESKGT
Chain of UniProt Q99705 (Q99705 whole entry, stated change not applied): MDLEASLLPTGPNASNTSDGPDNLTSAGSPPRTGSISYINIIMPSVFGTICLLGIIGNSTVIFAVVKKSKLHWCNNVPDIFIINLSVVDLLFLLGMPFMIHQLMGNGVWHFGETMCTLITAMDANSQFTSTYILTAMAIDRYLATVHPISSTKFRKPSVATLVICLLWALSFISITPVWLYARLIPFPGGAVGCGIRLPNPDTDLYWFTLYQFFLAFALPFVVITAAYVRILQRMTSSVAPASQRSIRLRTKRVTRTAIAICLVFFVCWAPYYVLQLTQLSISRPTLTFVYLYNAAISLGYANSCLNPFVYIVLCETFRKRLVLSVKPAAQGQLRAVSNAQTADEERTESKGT

For the molecule “[^125I]Phe^13,Tyr^19-MCH (from UniProt P20382 147-165) (peptide)”, the specific binding as percent of total binding (% of total binding) in experiment [1] came to 70. For the same molecule, in experiment [2], the specific binding (fmol/mg membrane protein) is 80.
In turn, “Phe^13,Tyr^19-MCH (from UniProt P20382 147-165) (peptide)” yielded an EC50 of extracellular acidification rate (microphysiometer), CHO cells transiently transfected with MCH1 in experiment [3] of 51.8 nM.
As for DFDMLRCMLGRVYRPCWQV (peptide, UniProt P20382 147-165, looked up) [melanin concentrating hormone (MCH)], the figures for the EC50 (nM), mobilization of intracellular calcium (FLIPR, fluo-3), COS-7 cells in experiment [4] and in experiment [5] were 60 nM and 3.5 nM, respectively. Moreover, the inositol phosphate (IP) production, Cos-7 cells co-transfected with MCH1 and a G alpha subunit, 10 µM MCH in experiment [4] was determined as 1.4 fold. For the same molecule, the Max. Response (RFU), mobilization of intracellular calcium (FLIPR, fluo-3), COS-7 cells was 30000 RFU and 25000 RFU in experiment [5]; 2270 RFU and 1550 RFU in experiment [6].
